Reference: IntAct's records for PubMed 35512704

B1: Speckle-type POZ protein (Homo sapiens), O43791 (parent)
chain: MSRVPSPPPPAEMSSGPVAESWCYTQIKVVKFSYMWTINNFSFCREEMGEVIKSSTFSSGANDKLKWCLRVNPKGLDEESKDYLSLYLLLVSCPKSEVRAKFKFSILNAKGEETKAMESQRAYRFVQGKDWGFKKFIRRDFLLDEANGLLPDDKLTLFCEVSVVQDSVNISGQNTMNMVKVPECRLADELGGLWENSRFTDCCLCVAGQEFQAHKAILAARSPVFSAMFEHEMEESKKNRVEINDVEPEVFKEMMCFIYTGKAPNLDKMADDLLAAADKYALERLKVMCEDALCSNLSVENAAEILILADLHSADQLKTQAVDFINYHASDVLETSGWKSMVVSHPHLVAEAYRSLASAQCPFLGPPRKRLKQS
partner: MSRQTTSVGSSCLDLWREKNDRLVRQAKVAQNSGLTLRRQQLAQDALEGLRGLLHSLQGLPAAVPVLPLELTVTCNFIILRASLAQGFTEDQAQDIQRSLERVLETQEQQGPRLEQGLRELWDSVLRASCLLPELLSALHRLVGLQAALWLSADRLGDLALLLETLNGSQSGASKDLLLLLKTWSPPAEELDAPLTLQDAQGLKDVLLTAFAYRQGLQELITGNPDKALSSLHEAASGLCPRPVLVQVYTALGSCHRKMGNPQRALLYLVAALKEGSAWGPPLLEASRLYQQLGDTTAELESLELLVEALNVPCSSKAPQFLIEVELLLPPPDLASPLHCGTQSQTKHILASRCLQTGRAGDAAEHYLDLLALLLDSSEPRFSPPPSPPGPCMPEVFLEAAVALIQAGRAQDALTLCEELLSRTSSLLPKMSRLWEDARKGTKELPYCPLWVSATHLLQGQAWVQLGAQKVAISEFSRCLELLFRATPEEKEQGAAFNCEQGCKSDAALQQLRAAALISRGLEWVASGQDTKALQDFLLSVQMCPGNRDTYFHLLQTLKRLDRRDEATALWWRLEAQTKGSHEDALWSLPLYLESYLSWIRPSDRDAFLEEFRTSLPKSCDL
B2: Speckle-type POZ protein (Homo sapiens), O43791 (parent)
chain: B1 chain
partner: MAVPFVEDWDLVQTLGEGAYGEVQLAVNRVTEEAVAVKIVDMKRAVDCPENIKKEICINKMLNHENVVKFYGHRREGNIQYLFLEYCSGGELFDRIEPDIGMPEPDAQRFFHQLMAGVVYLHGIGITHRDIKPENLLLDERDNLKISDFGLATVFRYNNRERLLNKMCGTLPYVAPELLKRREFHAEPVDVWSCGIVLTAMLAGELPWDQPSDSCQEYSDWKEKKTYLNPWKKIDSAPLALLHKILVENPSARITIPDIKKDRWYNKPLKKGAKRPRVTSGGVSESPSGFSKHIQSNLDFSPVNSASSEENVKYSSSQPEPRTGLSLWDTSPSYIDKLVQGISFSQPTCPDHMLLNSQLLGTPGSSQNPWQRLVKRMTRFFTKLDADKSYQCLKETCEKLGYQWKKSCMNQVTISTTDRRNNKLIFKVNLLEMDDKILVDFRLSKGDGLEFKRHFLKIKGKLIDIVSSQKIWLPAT
B3: Speckle-type POZ protein (Homo sapiens), O43791 (parent)
chain: B1 chain
partner: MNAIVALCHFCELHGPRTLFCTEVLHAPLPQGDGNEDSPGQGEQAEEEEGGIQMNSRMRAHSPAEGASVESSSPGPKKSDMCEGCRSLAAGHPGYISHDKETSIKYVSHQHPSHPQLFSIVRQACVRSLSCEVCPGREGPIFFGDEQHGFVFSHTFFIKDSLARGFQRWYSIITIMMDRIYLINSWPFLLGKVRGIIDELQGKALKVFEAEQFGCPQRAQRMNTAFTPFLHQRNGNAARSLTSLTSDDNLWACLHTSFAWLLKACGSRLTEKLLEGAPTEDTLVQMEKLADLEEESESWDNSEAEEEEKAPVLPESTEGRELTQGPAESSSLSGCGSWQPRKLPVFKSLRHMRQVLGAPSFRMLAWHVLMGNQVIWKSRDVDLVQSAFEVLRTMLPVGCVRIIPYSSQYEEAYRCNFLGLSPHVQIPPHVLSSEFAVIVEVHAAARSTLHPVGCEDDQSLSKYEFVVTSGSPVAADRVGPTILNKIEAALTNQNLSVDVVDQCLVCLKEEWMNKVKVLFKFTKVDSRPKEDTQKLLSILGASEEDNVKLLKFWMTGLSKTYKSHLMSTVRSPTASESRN
B4: Speckle-type POZ protein (Homo sapiens), O43791 (parent)
chain: B1 chain
partner: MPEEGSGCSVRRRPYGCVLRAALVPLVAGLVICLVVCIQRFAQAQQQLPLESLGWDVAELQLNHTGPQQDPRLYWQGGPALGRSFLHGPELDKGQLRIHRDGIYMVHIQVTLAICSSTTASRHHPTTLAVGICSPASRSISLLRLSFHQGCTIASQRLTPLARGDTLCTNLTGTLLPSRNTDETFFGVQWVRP
B5: Speckle-type POZ protein (Homo sapiens), O43791 (parent)
chain: B1 chain
partner: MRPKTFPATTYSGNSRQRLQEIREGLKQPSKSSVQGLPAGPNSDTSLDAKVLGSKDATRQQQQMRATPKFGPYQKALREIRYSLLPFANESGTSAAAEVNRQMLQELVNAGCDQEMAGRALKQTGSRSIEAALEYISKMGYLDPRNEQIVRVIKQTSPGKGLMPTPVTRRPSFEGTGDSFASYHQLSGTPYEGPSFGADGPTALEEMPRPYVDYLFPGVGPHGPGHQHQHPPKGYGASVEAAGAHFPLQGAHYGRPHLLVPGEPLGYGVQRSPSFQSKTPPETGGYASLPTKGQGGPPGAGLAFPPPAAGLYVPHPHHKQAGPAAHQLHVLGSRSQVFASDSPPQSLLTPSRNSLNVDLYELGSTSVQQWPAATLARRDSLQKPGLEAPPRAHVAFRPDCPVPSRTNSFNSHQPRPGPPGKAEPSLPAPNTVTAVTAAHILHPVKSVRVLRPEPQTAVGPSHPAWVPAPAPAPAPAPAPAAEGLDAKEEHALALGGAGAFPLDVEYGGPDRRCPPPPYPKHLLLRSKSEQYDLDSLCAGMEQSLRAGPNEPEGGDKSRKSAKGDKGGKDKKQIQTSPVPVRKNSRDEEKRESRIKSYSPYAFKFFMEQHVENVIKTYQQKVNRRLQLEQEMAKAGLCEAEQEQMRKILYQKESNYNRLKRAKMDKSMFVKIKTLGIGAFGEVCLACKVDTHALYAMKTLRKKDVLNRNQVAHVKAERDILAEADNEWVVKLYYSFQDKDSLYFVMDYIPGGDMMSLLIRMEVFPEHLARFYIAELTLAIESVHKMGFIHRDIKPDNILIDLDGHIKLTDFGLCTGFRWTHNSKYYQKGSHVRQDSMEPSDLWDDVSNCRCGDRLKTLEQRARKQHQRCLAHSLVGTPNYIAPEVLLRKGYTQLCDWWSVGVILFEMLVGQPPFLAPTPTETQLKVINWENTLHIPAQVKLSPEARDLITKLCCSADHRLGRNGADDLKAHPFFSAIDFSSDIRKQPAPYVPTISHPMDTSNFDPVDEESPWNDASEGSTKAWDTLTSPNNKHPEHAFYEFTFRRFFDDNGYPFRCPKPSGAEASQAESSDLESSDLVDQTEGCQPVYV
B6: Speckle-type POZ protein (Homo sapiens), O43791 (parent)
chain: B1 chain
partner: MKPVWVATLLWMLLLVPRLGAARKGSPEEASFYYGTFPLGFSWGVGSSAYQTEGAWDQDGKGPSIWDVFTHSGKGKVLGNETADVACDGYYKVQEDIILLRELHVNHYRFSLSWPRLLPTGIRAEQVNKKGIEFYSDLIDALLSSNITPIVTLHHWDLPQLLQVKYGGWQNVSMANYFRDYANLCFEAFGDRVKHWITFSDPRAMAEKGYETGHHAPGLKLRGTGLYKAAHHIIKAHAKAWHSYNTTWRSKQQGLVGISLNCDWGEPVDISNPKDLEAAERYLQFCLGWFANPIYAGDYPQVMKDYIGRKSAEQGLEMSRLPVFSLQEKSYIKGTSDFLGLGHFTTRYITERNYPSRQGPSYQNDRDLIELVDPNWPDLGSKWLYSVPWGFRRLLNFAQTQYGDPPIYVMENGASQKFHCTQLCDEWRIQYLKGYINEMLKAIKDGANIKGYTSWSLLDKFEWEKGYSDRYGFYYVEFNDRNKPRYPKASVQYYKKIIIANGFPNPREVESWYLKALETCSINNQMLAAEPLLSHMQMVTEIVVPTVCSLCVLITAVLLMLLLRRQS
B7: Speckle-type POZ protein (Homo sapiens), O43791 (parent)
chain: B1 chain
partner: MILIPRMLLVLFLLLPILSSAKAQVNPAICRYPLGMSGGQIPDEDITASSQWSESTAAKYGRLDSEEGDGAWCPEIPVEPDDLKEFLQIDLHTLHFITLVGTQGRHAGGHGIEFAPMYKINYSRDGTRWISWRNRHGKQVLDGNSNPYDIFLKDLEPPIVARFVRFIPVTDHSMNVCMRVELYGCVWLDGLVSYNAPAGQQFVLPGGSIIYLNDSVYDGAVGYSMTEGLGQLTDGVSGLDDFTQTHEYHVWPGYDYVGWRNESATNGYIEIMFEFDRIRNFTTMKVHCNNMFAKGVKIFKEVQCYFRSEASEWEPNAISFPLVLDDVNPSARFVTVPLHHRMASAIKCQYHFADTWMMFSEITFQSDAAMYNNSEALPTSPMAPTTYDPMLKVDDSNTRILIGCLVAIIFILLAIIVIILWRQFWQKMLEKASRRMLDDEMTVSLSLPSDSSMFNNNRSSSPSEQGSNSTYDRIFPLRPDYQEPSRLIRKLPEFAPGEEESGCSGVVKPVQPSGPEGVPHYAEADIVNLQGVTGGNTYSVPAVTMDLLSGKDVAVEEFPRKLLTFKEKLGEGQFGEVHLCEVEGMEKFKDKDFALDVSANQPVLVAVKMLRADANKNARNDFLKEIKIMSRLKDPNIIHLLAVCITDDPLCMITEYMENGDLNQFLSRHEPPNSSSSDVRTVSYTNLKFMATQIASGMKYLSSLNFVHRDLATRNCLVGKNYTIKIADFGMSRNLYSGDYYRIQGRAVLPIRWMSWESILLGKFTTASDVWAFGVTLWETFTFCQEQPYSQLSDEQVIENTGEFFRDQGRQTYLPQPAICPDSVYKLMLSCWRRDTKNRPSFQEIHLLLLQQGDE

Variants of: B1
Conditions: with fancg_human FANCG

| effect of a mutation on the interaction | Variant |
| --- | --- |
| with no effect | F133L |

Variants of: B2
Conditions: with chk1_human CHEK1, O14757

| effect of a mutation on the interaction | Variant |
| --- | --- |
| with no effect | F102C |

Variants of: B2
Conditions: with chk1_human CHEK1, O14757
Remark: another data set of the same source

| effect of a mutation on the interaction | Variant |
| --- | --- |
| with no effect | F133V |

Variants of: B2
Conditions: with chk1_human CHEK1, O14757
Remark: another data set of the same source

| effect of a mutation on the interaction | Variant |
| --- | --- |
| with no effect | F133L |

Variants of: B2
Conditions: with chk1_human CHEK1, O14757
Remark: another data set of the same source

| effect of a mutation on the interaction | Variant |
| --- | --- |
| with no effect | Y87C |

Variants of: B3
Conditions: with flcn_human FLCN

| effect of a mutation on the interaction | Variant |
| --- | --- |
| with no effect | Y87C |

Variants of: B3
Conditions: with flcn_human FLCN
Remark: another data set of the same source

| effect of a mutation on the interaction | Variant |
| --- | --- |
| with no effect | F133L |

Variants of: B3
Conditions: with flcn_human FLCN
Remark: another data set of the same source

| effect of a mutation on the interaction | Variant |
| --- | --- |
| with no effect | F133V |

Variants of: B3
Conditions: with flcn_human FLCN
Remark: another data set of the same source

| effect of a mutation on the interaction | Variant |
| --- | --- |
| with no effect | F102C |

Variants of: B4
Conditions: with cd70_human CD70, P32970

| effect of a mutation on the interaction | Variant |
| --- | --- |
| with no effect | F102C |

Variants of: B4
Conditions: with cd70_human CD70, P32970
Remark: another data set of the same source

| effect of a mutation on the interaction | Variant |
| --- | --- |
| with no effect | F133L |

Variants of: B4
Conditions: with cd70_human CD70, P32970
Remark: another data set of the same source

| effect of a mutation on the interaction | Variant |
| --- | --- |
| with no effect | F133V |

Variants of: B4
Conditions: with cd70_human CD70, P32970
Remark: another data set of the same source

| effect of a mutation on the interaction | Variant |
| --- | --- |
| with no effect | Y87C |

Variants of: B5
Conditions: with lats2_human LATS2, Q9NRM7

| effect of a mutation on the interaction | Variant |
| --- | --- |
| with no effect | Y87C |

Variants of: B5
Conditions: with lats2_human LATS2, Q9NRM7
Remark: another data set of the same source

| effect of a mutation on the interaction | Variant |
| --- | --- |
| with no effect | F133V |

Variants of: B5
Conditions: with lats2_human LATS2, Q9NRM7
Remark: another data set of the same source

| effect of a mutation on the interaction | Variant |
| --- | --- |
| with no effect | F133L |

Variants of: B5
Conditions: with lats2_human LATS2, Q9NRM7
Remark: another data set of the same source

| effect of a mutation on the interaction | Variant |
| --- | --- |
| with no effect | F102C |

Variants of: B6
Conditions: with lctl_human LCTL

| effect of a mutation on the interaction | Variant |
| --- | --- |
| with no effect | Y87C |

Variants of: B6
Conditions: with lctl_human LCTL
Remark: another data set of the same source

| effect of a mutation on the interaction | Variant |
| --- | --- |
| with no effect | F133V |

Variants of: B6
Conditions: with lctl_human LCTL
Remark: another data set of the same source

| effect of a mutation on the interaction | Variant |
| --- | --- |
| with no effect | F133L |

Variants of: B6
Conditions: with lctl_human LCTL
Remark: another data set of the same source

| effect of a mutation on the interaction | Variant |
| --- | --- |
| with no effect | F102C |

Variants of: B7
Conditions: with ddr2_human DDR2, Q16832

| effect of a mutation on the interaction | Variant |
| --- | --- |
| with no effect | Y87C |

Variants of: B7
Conditions: with ddr2_human DDR2, Q16832
Remark: another data set of the same source

| effect of a mutation on the interaction | Variant |
| --- | --- |
| with no effect | F102C |
